Reference: article PMC10397247
Read-outs that look alike come from different tables or passages of the source.

T1: 4H2505-AA
T1 chain: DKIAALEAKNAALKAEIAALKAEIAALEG

T2: 4H2575-AA
T2 chain: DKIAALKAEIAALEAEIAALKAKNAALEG

T3: 4H2617-AA
T3 chain: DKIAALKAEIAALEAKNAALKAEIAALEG

T4: 4H2642-AA
T4 chain: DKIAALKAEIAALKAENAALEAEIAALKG

T5: 4H2729-AA
T5 chain: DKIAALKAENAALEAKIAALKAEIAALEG

T6: 4H2754-AA
T6 chain: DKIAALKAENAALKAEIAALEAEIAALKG

T7: 4H2837-AA
T7 chain: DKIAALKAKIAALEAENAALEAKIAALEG

T8: 4H2883-AA
T8 chain: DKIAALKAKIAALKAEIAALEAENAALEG

T9: 4H2944-AA
T9 chain: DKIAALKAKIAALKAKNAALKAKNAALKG

T10: 4H2949-AA
T10 chain: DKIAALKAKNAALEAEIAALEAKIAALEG

T11: 4H3112-AA
T11 chain: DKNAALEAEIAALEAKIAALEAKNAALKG

T12: 4H317-AA
T12 chain: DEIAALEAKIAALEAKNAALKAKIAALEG

T13: 4H3343-AA
T13 chain: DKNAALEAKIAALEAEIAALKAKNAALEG

T14: 4H335-AA
T14 chain: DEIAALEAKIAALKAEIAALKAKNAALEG

T15: 4H342-AA
T15 chain: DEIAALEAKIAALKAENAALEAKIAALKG

T16: 4H3427-AA
T16 chain: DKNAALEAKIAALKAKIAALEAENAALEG

T17: 4H3606-AA
T17 chain: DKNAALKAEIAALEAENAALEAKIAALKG

T18: 4H3627-AA
T18 chain: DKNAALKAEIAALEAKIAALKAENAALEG

T19: 4H3655-AA
T19 chain: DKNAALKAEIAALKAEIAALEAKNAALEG

T20: 4H3844-AA
T20 chain: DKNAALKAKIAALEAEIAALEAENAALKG

T21: 4H3921-AA
T21 chain: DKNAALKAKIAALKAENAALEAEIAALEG

T22: 4H429-AA
T22 chain: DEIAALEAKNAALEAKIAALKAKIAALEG

T23: 4H454-AA
T23 chain: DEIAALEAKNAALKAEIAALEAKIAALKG

T24: 4H48-AA
T24 chain: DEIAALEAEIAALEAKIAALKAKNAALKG

T25: 4H566-AA
T25 chain: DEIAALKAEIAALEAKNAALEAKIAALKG

T26: 4H605-AA
T26 chain: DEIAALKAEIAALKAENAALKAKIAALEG

T27: 4H678-AA
T27 chain: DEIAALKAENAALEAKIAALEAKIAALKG

T28: 4H717-AA
T28 chain: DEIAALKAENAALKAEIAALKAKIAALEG

T29: 4H780-AA
T29 chain: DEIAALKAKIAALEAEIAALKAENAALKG

T30: 4H794-AA
T30 chain: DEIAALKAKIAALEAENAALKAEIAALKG

T31: 4H881-AA
T31 chain: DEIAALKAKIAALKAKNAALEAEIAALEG

T32: 4H906-AA
T32 chain: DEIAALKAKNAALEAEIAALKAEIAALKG

T33: 4H993-AA
T33 chain: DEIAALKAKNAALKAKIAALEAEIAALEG

T34: 4H40-bH
T34 chain: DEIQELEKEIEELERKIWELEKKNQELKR

T35: 4H477-bH
T35 chain: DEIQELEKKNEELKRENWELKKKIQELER

T36: 4H492-bH
T36 chain: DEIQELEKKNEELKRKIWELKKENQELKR

T37: 4H741-bH
T37 chain: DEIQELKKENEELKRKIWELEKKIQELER

T38: 4H2466-AA
T38 chain: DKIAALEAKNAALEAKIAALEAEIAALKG

T39: 4H619-bH
T39 chain: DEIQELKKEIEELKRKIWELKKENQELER

T40: 4H850-bH
T40 chain: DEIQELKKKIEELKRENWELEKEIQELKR

T41: 4H906-bH
T41 chain: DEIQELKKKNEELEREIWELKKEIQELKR


Key:
[1] = biological target: T1, 4H2505-AA; assay: two-hybrid library CCmax;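 further: natural log of median RNA to DNA barcode read ratio; higher means stronger binding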
[2] = biological target: T2, 4H2575-AA; assay: two-hybrid library CCmax; conditions: mean of both orientations;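 further: natural log of median RNA to DNA barcode read ratio; higher means stronger binding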
[3] = biological target: T3, 4H2617-AA; assay: two-hybrid library CCmax; conditions: mean of both orientations;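 further: natural log of median RNA to DNA barcode read ratio; higher means stronger binding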
[4] = biological target: T4, 4H2642-AA; assay: two-hybrid library CCmax; conditions: mean of both orientations;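 further: natural log of median RNA to DNA barcode read ratio; higher means stronger binding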
[5] = biological target: T5, 4H2729-AA; assay: two-hybrid library CCmax; conditions: mean of both orientations
[6] = biological target: T6, 4H2754-AA; assay: two-hybrid library CCmax; conditions: mean of both orientations
[7] = biological target: T7, 4H2837-AA; assay: two-hybrid library CCmax; conditions: mean of both orientations
[8] = biological target: T8, 4H2883-AA; assay: two-hybrid library CCmax; conditions: mean of both orientations
[9] = biological target: T9, 4H2944-AA; assay: two-hybrid library CCmax; conditions: mean of both orientations
[10] = biological target: T10, 4H2949-AA; assay: two-hybrid library CCmax; conditions: mean of both orientations
[11] = biological target: T11, 4H3112-AA; assay: two-hybrid library CCmax; conditions: mean of both orientations
[12] = biological target: T12, 4H317-AA; assay: two-hybrid library CCmax; conditions: mean of both orientations
[13] = biological target: T13, 4H3343-AA; assay: two-hybrid library CCmax; conditions: mean of both orientations
[14] = biological target: T14, 4H335-AA; assay: two-hybrid library CCmax; conditions: mean of both orientations
[15] = biological target: T15, 4H342-AA; assay: two-hybrid library CCmax; conditions: mean of both orientations
[16] = biological target: T16, 4H3427-AA; assay: two-hybrid library CCmax; conditions: mean of both orientations
[17] = biological target: T17, 4H3606-AA; assay: two-hybrid library CCmax; conditions: mean of both orientations
[18] = biological target: T18, 4H3627-AA; assay: two-hybrid library CCmax
[19] = biological target: T19, 4H3655-AA; assay: two-hybrid library CCmax; conditions: mean of both orientations
[20] = biological target: T20, 4H3844-AA; assay: two-hybrid library CCmax; conditions: mean of both orientations
[21] = biological target: T21, 4H3921-AA; assay: two-hybrid library CCmax; conditions: mean of both orientations
[22] = biological target: T22, 4H429-AA; assay: two-hybrid library CCmax
[23] = biological target: T23, 4H454-AA; assay: two-hybrid library CCmax; conditions: mean of both orientations
[24] = biological target: T24, 4H48-AA; assay: two-hybrid library CCmax; conditions: mean of both orientations
[25] = biological target: T25, 4H566-AA; assay: two-hybrid library CCmax; conditions: mean of both orientations
[26] = biological target: T26, 4H605-AA; assay: two-hybrid library CCmax; conditions: mean of both orientations
[27] = biological target: T27, 4H678-AA; assay: two-hybrid library CCmax; conditions: mean of both orientations
[28] = biological target: T28, 4H717-AA; assay: two-hybrid library CCmax; conditions: mean of both orientations
[29] = biological target: T29, 4H780-AA; assay: two-hybrid library CCmax; conditions: mean of both orientations
[30] = biological target: T30, 4H794-AA; assay: two-hybrid library CCmax; conditions: mean of both orientations
[31] = biological target: T31, 4H881-AA; assay: two-hybrid library CCmax; conditions: mean of both orientations
[32] = biological target: T32, 4H906-AA; assay: two-hybrid library CCmax; conditions: mean of both orientations
[33] = biological target: T33, 4H993-AA; assay: two-hybrid library CCmax; conditions: mean of both orientations
[34] = biological target: T34, 4H40-bH; assay: two-hybrid library CCNG1
[35] = biological target: T35, 4H477-bH; assay: two-hybrid library CCNG1
[36] = biological target: T36, 4H492-bH; assay: two-hybrid library CCNG1
[37] = biological target: T37, 4H741-bH; assay: two-hybrid library CCNG1
[38] = biological target: T38, 4H2466-AA; assay: two-hybrid library CCmax; conditions: mean of both orientations
[39] = biological target: T39, 4H619-bH; assay: two-hybrid library CCNG1
[40] = biological target: T40, 4H850-bH; assay: two-hybrid library CCNG1
[41] = biological target: T41, 4H906-bH; assay: two-hybrid library CCNG1

Row | Binder | interaction score [2] | interaction score [3] | interaction score [4] | interaction score [5] | interaction score [6] | interaction score [7] | interaction score [8] | interaction score [9] | interaction score [10] | interaction score [11] | interaction score [12] | interaction score [13] | interaction score [14] | interaction score [15] | interaction score [16] | interaction score [17] | interaction score [19] | interaction score [20] | interaction score [21] | interaction score [23] | also measured
1 | DKIAALEAKNAALKAEIAALKAEIAALEG [4H2505-AA] | -0.277 | -0.92 | -0.234 | 2.02 | 1.69 | 1.03 | -0.918 | -1.9 | 1.68 | -1.11 | -1.65 | -1.59 | -1.01 | 1.06 | -1.04 | 1.04 | -1.61 | -1.01 | -0.328 | 2.21 | interaction score [1]: 1.09; interaction score [18]: -1.54; interaction score [22]: 1.6; interaction score [24]: 0.908; interaction score [25]: -0.341; interaction score [26]: -1.14; interaction score [27]: 1.78; interaction score [28]: -0.029; interaction score [29]: -1.6; interaction score [30]: -0.881; interaction score [31]: -1.43; interaction score [32]: 0.636; interaction score [33]: -1.53
2 | DEIQELEKEIEELERKIWELEKKNQELKR [4H40-bH] | – | – | – | – | – | – | – | – | – | – | – | – | – | – | – | – | – | – | – | – | interaction score [34]: -0.0343; interaction score [35]: -0.00296; interaction score [36]: 0.0489; interaction score [37]: 0.646
3 | DKIAALEAKIAALKAENAALKAEIAALEG [4H2393-AA] | -1.03 | 1.93 | 1.82 | -0.695 | -1.23 | 1.73 | -1.21 | -0.902 | 1.51 | -1.21 | 1.92 | -1.29 | -1.56 | 2.37 | -1.45 | 2.32 | -1.41 | 1.55 | -1.77 | -0.951 | interaction score [38]: 0.221; interaction score ([1]; mean of both orientations): -1.59; interaction score ([18]; mean of both orientations): -1.42; interaction score ([22]; mean of both orientations): -1.55; interaction score [24]: -0.193; interaction score [25]: 1.33; interaction score [26]: 0.852; interaction score [27]: -0.574; interaction score [28]: -1.55; interaction score [29]: -1.42; interaction score [30]: 1.33; interaction score [31]: -1; interaction score [32]: -1.04; interaction score [33]: -1.5
4 | DEIQELKKEIEELKRKIWELKKENQELER [4H619-bH] | – | – | – | – | – | – | – | – | – | – | – | – | – | – | – | – | – | – | – | – | interaction score [39]: 0.749; interaction score [40]: 0.196; interaction score [41]: -0.349
